The target in one experiment is T1, murine CCT5 (mouse, UniProt P80316 2-541).
T1 construct: Endogenous CCT5 in B16-F10 melanoma cells; also called mouse CCT5
Description: immunoprecipitation and Western blot, B16-F10 cells. For orientation: Immunoblotting shows a protein as a band on a membrane.

The target in the next experiment is T2, human CCT5 (human, UniProt P48643 2-541, limits assumed).
T2 construct: also called Chaperonin Containing TCP1 Subunit 5; TRiC protein CCT5
Kind of experiment: immunoprecipitation from cytosolic and plasma membrane lysate fractions, Western blot for CCT5. The text has this: Cytosolic and plasma membrane (surface) lysate preparations of SK-BR-3 and OvCar3 cells were probed by Western blot for CCT5 after immunoprecipitation with the antibody identified Example 1, or a negative control antibody, Panitumumab.

A further experiment concerns the target RalGapa2 (UniProt Q2PPJ7 1-1873, limits assumed). Description: immunoprecipitation from OvCar8, SKBR3 and MIAPACA2 lysates, Western blot with rabbit polyclonal antibodies. The method, then:
(§1) A. Immunoprecipitation and Mass Spectrometry to Identify Candidate Target Proteins Whole cell lysates of exemplary ovarian or leukemia cell lines were used for immunoprecipitation experiments with the antibody identified in Example 1. The identified antibody was covalently conjugated to magnetic epoxy beads, and 10 µg of bead-bound antibody were incubated with 1-2 mL whole cell lysate (at 1 mg protein/mL lysate) of ovarian carcinoma cell line (OvCar8) or acute myeloid leukemia cell line (SKM1). The cell lysates were also incubated with control antibodies known to bind the cell line, or beads alone. The immunoprecipitates were then washed and eluted first with low pH, and second with a cationic detergent elution buffer. The eluates were resolved by SDS-PAGE and stained with a protein stain to visualize the bands.
(§2) The immunoprecipitation with the identified antibody was repeated, with OvCar8 cells and also SKBR3 (breast cancer) and MIAPACA2 (pancreas carcinoma) cell lines. The eluates were resolved by SDS-PAGE, transferred for Western blot analysis using rabbit polyclonal antibodies specific to the top 10 candidate proteins identified in part A: RalGapa2, RalGapB, SPTAN1, IMPDH2, DNAJC13, SPTAN1, SNRNP200, PRPF8, CCT4, and CCT2. CCT2 and CCT4 were specifically detected in the immunoprecipitates from all assessed cancer cell lines. No bands corresponding to the other proteins were detected. CCT2 and CCT4 are both part of the TCP1 ring complex (TRiC).

In the next experiment the target is T3, RalGapB (UniProt Q86X10 1-1494, limits assumed).
T3 sequence (looked up): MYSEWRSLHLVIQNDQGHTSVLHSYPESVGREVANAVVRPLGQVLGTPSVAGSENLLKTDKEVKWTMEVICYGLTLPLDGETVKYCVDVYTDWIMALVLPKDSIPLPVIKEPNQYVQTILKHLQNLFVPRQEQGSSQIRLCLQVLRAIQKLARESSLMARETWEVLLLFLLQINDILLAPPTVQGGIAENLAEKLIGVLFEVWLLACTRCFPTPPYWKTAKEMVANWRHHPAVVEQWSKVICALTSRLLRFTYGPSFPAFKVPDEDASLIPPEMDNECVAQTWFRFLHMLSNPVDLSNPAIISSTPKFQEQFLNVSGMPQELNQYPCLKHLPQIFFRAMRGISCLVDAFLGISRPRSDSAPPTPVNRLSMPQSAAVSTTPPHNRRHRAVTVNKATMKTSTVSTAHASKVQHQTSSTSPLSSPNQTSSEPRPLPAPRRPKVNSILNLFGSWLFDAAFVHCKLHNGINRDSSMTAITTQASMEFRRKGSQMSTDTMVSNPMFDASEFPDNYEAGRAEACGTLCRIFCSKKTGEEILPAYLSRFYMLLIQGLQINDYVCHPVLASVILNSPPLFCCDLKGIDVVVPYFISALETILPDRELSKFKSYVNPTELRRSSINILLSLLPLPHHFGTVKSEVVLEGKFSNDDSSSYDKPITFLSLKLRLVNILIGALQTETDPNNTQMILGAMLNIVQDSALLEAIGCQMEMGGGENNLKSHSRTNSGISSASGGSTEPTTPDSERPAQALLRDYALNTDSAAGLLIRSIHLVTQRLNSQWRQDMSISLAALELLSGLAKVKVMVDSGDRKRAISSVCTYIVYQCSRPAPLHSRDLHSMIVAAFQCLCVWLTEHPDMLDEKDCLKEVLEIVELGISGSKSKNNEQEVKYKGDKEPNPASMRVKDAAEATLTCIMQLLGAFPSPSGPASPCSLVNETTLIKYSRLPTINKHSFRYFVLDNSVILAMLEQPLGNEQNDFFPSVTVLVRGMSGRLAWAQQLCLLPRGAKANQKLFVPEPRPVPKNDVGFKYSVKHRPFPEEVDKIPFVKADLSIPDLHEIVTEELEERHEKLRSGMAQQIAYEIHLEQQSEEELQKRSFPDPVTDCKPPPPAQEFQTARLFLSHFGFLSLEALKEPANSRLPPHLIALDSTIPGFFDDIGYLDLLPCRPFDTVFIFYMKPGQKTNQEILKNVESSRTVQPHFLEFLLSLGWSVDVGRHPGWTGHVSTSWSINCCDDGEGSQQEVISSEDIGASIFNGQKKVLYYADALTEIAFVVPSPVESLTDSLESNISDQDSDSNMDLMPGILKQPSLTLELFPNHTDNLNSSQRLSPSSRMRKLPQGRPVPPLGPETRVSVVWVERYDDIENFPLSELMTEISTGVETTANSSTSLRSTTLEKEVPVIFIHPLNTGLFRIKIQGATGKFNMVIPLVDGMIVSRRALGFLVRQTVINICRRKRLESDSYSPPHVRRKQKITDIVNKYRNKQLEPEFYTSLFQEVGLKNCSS
Described as above. On the procedure: as §1, §2

The target of the next experiment is SPTAN1 (UniProt Q13813 1-2472, limits assumed). The description is as above. The method, then:
as §1, §2

The target in another experiment is DNAJC13 (UniProt O75165 1-2243). The experiment is described as above. On the procedure: as §1, §2
The next experiment deals with SNRNP200 (UniProt O75643 1-2136, limits assumed). The description is as above. The method, then:
as §1, §2

A further experiment addresses PRPF8 (UniProt Q6P2Q9 2-2335). Described as above. The method, then: as §1, §2

This is an account of results in patent US12006356 (JUNO THERAPEUTICS, dated 2024).

T2 sequence (P48643 2-541 limits assumed): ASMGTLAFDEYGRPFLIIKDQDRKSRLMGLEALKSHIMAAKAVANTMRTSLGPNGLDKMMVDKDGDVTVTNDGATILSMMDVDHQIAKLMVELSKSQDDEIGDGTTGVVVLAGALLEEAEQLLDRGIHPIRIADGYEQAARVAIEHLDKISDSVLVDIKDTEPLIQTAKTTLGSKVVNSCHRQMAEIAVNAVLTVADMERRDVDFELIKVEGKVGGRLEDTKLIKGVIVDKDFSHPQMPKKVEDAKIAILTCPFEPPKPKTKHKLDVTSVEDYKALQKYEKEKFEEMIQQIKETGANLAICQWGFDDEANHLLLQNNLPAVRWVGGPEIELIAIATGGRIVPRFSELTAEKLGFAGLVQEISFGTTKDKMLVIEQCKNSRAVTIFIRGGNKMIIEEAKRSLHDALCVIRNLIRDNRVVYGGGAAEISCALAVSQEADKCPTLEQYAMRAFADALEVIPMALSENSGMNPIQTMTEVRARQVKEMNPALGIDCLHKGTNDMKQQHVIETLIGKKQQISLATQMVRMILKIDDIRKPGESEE
T1 sequence (P80316 2-541 limits assumed): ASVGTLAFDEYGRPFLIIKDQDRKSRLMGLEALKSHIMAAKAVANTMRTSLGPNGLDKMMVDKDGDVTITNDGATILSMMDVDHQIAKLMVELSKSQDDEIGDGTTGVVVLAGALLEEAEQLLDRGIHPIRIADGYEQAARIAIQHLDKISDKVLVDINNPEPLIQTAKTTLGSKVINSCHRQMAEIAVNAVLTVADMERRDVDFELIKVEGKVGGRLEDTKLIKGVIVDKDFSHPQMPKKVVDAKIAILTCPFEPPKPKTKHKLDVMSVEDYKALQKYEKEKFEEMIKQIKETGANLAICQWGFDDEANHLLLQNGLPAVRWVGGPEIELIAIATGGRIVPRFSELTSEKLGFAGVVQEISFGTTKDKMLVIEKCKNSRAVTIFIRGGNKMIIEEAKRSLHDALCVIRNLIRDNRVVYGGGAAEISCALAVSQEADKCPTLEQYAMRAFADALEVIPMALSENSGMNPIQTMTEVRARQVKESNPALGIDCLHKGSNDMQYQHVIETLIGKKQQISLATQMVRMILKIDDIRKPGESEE
SNRNP200, sequence (O75643 whole entry): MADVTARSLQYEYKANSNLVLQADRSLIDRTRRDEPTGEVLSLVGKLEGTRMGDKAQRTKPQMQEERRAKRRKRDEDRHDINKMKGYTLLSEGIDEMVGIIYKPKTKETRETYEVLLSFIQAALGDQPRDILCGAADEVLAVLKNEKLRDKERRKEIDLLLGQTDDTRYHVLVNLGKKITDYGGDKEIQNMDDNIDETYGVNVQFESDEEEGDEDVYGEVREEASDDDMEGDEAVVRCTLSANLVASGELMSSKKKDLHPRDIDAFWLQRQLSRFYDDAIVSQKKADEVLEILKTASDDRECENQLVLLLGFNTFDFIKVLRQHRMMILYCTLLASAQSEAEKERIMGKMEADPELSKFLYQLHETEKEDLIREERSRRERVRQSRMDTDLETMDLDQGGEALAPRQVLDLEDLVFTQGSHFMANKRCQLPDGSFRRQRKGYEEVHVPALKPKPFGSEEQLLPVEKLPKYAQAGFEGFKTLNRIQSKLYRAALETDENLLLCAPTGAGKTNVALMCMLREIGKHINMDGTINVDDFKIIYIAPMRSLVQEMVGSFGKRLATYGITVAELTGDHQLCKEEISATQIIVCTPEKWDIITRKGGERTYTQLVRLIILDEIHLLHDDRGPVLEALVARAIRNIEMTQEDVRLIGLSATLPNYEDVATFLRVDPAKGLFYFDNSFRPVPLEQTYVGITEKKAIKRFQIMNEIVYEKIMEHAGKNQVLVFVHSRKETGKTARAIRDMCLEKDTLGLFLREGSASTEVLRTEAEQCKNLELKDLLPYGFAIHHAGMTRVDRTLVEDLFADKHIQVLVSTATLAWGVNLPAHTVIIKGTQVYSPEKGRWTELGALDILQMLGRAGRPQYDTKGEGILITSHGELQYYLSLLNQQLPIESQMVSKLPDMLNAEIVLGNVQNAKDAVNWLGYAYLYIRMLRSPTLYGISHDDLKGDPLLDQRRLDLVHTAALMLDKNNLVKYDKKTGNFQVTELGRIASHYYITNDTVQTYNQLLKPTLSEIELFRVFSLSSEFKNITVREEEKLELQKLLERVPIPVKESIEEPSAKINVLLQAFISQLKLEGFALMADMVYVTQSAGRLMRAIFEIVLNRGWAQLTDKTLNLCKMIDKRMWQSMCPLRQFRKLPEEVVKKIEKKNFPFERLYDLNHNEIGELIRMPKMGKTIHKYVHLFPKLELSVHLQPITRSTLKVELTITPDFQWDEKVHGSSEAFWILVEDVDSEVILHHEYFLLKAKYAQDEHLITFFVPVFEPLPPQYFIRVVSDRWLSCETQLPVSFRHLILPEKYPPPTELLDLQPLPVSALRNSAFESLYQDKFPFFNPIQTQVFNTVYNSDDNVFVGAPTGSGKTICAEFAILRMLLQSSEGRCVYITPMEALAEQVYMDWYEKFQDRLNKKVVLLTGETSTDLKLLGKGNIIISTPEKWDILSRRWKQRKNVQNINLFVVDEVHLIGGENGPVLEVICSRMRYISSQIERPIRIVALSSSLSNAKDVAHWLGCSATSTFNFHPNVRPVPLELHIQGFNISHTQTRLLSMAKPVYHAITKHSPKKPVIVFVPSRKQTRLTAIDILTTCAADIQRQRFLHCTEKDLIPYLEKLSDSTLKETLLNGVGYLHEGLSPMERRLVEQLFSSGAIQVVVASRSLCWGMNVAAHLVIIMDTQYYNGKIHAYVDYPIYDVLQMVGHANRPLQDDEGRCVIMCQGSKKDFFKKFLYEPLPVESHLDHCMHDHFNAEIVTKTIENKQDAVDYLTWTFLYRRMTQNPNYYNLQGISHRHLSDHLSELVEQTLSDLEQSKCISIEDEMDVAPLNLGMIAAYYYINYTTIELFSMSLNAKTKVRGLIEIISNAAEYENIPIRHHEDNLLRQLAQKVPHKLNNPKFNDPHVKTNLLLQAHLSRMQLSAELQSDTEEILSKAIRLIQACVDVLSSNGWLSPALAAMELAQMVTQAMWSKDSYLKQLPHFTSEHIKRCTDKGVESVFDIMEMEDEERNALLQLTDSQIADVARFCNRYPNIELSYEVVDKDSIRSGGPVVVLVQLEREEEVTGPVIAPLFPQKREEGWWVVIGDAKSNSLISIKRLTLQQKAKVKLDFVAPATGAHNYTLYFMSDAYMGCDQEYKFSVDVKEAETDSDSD
RalGapa2, sequence (Q2PPJ7 whole entry): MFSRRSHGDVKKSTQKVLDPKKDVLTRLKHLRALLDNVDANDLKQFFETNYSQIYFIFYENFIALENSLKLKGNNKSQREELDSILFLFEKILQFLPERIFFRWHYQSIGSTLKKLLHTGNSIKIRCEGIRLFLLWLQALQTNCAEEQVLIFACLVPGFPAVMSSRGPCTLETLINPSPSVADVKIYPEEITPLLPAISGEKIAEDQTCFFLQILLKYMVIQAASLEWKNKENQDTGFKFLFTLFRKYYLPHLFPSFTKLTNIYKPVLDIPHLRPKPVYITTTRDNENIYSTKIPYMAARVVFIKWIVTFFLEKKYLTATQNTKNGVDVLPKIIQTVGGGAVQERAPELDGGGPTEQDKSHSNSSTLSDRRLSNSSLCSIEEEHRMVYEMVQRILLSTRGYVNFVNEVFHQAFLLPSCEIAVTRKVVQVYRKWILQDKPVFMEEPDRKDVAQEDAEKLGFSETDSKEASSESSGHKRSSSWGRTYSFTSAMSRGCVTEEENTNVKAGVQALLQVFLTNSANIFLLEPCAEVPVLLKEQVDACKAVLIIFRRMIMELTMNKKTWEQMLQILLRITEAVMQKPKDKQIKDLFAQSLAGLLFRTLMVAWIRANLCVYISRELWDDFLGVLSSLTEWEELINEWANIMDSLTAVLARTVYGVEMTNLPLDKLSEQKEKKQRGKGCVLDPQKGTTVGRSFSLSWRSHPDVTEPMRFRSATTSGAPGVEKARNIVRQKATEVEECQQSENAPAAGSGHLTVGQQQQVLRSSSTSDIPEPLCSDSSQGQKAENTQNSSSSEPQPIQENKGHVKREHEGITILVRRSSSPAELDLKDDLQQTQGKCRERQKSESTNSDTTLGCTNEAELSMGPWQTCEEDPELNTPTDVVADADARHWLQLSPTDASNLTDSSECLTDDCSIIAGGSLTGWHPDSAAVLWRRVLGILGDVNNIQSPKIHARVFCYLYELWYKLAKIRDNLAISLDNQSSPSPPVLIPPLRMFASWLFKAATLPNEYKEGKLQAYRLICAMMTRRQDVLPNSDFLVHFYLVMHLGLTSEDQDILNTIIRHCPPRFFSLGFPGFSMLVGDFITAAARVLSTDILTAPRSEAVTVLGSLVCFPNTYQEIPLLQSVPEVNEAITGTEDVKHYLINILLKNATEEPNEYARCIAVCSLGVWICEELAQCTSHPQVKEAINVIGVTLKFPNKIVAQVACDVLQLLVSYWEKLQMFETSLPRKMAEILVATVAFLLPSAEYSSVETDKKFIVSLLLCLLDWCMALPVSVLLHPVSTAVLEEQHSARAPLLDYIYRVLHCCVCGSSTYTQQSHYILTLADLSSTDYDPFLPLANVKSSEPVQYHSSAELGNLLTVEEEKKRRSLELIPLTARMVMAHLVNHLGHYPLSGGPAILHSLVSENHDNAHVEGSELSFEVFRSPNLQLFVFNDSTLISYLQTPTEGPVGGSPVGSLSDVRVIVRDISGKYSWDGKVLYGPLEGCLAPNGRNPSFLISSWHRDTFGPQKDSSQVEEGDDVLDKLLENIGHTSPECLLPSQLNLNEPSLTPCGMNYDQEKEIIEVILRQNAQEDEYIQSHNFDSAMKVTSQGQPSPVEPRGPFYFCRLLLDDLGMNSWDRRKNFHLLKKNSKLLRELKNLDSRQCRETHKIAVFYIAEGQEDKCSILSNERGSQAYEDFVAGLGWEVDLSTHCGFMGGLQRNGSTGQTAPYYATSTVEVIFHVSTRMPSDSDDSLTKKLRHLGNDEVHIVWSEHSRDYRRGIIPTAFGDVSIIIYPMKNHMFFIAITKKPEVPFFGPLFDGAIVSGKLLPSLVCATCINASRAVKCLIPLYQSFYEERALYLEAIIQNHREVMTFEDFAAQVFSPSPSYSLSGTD

B1: exemplary anti-CCT5 antibody identified in Example 1 (antibody, V domains shown)
VH: EVQLVESGGGLVQPGGSLRLSCAASGFTFSSYSMNWVRQAPGKGLEWVSYISSSSSTIYYADSVKGRFTISRDNAKNSLYLQMNSLRDEDTAVYYCARDFKGDCSSTSCYRGGYYYYYGMDVWGQGTTVTVSS
VL: SYELTQPPSVSVSPGQTASITCFGDQLGDKYVSWYQKKPGQSPVLVIYQDANRPSGIPERFSGSNSGNTATLTIRGTQNLDEADYYCQTWGTTTALFGGGTKLTVL
notes: For immunoprecipitation it was covalently conjugated to magnetic epoxy beads; also called the identified antibody
For the molecule B1, the binding result with murine CCT5 is on record as “binds”; with human CCT5, “binds”; in the experiment with RalGapa2 it was “no binding”; with RalGapB it was “no binding”; with SPTAN1, “no binding”; in the experiment with DNAJC13, “no binding”. In addition, the binding result with SNRNP200 and with PRPF8 was “no binding” throughout.
